Source: PMC6274998, “Mycobacterium tuberculosis ClpC1 N-Terminal Domain Is Dispensable for Adaptor Protein-Dependent Allosteric Regulation” (International Journal of Molecular Sciences, 2018)

Target: T1, ∆NTD-ClpC1 (ClpC1 truncation mutant lacking N-terminal residues M1-Y145) (Mycobacterium tuberculosis H37Rv, UniProt P9WPC9 146-848)
T1 construct: ClpC1, M. tuberculosis H37Rv, Rv3596c, lacking N-terminal residues M1-Y145 (begins at residue 146); also called ∆NTD-ClpC1 truncation; not shown: His6-SUMO, N-terminal, cleaved
T1 sequence: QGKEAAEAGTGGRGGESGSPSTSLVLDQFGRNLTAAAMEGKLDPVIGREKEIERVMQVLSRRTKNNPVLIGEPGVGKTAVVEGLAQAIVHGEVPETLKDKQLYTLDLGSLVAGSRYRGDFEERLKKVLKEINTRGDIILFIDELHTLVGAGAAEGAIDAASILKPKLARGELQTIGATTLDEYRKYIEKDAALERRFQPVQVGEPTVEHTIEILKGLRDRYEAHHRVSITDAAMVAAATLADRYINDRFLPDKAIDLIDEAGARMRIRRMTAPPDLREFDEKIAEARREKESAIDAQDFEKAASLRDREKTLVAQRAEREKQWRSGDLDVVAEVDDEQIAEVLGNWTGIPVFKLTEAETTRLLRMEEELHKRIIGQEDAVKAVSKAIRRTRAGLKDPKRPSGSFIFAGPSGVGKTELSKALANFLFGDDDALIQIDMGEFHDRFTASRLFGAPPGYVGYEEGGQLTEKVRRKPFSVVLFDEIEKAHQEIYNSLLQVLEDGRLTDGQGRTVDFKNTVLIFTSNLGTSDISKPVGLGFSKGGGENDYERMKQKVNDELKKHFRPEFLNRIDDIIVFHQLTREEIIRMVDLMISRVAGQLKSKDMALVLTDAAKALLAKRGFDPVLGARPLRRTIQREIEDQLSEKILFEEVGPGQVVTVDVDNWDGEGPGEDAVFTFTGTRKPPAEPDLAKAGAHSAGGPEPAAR
Assay: pull-down
Conditions: both partners purified

B1: His6-SUMO-ClpS (Mycobacterium tuberculosis ClpS adaptor protein, His6-SUMO fusion) (natural protein)
chain: MAVVSAPAKPGTTWQRESAPVDVTDRAWVTIVWDDPVNLMSYVTYVFQKLFGYSEPHATKLMLQVHNEGKAVVSAGSRESMEVDVSKLHAAGLWATMQQDR
notes: also called His6-ClpS; His6-tagged ClpS; not shown: His6, N-terminal, kept; SUMO, N-terminal, kept
  binding result: binds
